Measured values reported in PMC4117426, “SlmA Antagonism of FtsZ Assembly Employs a Two-pronged Mechanism like MinCD”.

Legend:
Conditions in all cases: protein: recombinant; tags: N-terminal 6xHis; chain copies: 4; blunt
[1] = molecular target: T1, 6xHis-SlmA-T33A (Escherichia coli, UniProt P0C093 1-198, T33A); assay: BLI; 4 uM SlmA; BLI in 1x Pol buffer: 50 mM HEPES-NaOH pH 8.0, 200 mM KCl, 10 mM MgCl2, room temperature; 50 nM biotinylated SBS17 on streptavidin tips
T1 sequence: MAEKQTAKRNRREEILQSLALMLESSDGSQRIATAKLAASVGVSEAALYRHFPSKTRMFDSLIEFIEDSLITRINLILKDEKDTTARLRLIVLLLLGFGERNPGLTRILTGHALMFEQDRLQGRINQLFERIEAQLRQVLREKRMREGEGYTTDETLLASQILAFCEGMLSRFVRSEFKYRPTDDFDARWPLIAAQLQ

[2] = molecular target: T2, 6xHis-SlmA-R73D (Escherichia coli, UniProt P0C093 1-198, R73D); assay: BLI; 4 uM SlmA; binds like WT; BLI in 1x Pol buffer: 50 mM HEPES-NaOH pH 8.0, 200 mM KCl, 10 mM MgCl2, room temperature; 50 nM biotinylated SBS17 on streptavidin tips
T2 sequence: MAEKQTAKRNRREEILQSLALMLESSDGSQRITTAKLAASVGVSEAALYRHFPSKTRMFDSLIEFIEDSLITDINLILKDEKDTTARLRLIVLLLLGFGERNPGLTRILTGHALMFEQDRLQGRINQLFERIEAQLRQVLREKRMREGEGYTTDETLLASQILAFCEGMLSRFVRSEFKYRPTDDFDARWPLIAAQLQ

[3] = molecular target: T3, 6xHis-SlmA-F65A (Escherichia coli, UniProt P0C093 1-198, F65A); assay: as above
T3 sequence: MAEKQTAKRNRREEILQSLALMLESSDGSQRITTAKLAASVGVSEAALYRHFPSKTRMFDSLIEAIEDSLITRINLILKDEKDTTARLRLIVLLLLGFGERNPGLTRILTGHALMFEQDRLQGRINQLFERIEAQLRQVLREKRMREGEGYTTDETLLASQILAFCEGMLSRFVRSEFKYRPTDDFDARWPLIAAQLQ

[4] = molecular target: T4, 6xHis-SlmA WT (Escherichia coli, UniProt P0C093 1-198); assay: BLI; kon 3.24e4 1/(M*s), koff 2.04e-3 1/s, R2 0.98; BLI in 1x Pol buffer: 50 mM HEPES-NaOH pH 8.0, 200 mM KCl, 10 mM MgCl2, room temperature; 50 nM biotinylated SBS17 on streptavidin tips
T4 sequence: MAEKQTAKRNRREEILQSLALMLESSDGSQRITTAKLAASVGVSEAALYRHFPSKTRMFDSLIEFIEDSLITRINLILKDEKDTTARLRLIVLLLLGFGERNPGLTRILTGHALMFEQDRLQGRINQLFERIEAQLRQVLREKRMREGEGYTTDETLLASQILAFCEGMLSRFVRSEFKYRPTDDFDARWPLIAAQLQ

B1: biotinylated SBS17-30mer (dsDNA)
DNA 1: CAAAAGTAAGTAAATGGTCACTAACGTTGA
DNA 2: TCAACGTTAGTGACCATTTACTTACTTTTG
B1: no binding [1]; binds [2]; binds [3]. For the same binder, the Kd [4] was 62.9 nM.
